Assay results reported in IntAct's records for PubMed 22916032.

B1: U3 small nucleolar RNA-associated protein 4 homolog (Homo sapiens), Q969X6 (parent)
chain: MGEFKVHRVRFFNYVPSGIRCVAYNNQSNRLAVSRTDGTVEIYNLSANYFQEKFFPGHESRATEALCWAEGQRLFSAGLNGEIMEYDLQALNIKYAMDAFGGPIWSMAASPSGSQLLVGCEDGSVKLFQITPDKIQFERNFDRQKSRILSLSWHPSGTHIAAGSIDYISVFDVKSGSAVHKMIVDRQYMGVSKRKCIVWGVAFLSDGTIISVDSAGKVQFWDSATGTLVKSHLIANADVQSIAVADQEDSFVVGTAEGTVFHFQLVPVTSNSSEKQWVRTKPFQHHTHDVRTVAHSPTALISGGTDTHLVFRPLMEKVEVKNYDAALRKITFPHRCLISCSKKRQLLLFQFAHHLELWRLGSTVATGKNGDTLPLSKNADHLLHLKTKGPENIICSCISPCGSWIAYSTVSRFFLYRLNYEHDNISLKRVSKMPAFLRSALQILFSEDSTKLFVASNQGALHIVQLSGGSFKHLHAFQPQSGTVEAMCLLAVSPDGNWLAASGTSAGVHVYNVKQLKLHCTVPAYNFPVTAMAIAPNTNNLVIAHSDQQVFEYSIPDKQYTDWSRTVQKQGFHHLWLQRDTPITHISFHPKRPMHILLHDAYMFCIIDKSLPLPNDKTLLYNPFPPTNESDVIRRRTAHAFKISKIYKPLLFMDLLDERTLVAVERPLDDIIAQLPPPIKKKKFGT
partner: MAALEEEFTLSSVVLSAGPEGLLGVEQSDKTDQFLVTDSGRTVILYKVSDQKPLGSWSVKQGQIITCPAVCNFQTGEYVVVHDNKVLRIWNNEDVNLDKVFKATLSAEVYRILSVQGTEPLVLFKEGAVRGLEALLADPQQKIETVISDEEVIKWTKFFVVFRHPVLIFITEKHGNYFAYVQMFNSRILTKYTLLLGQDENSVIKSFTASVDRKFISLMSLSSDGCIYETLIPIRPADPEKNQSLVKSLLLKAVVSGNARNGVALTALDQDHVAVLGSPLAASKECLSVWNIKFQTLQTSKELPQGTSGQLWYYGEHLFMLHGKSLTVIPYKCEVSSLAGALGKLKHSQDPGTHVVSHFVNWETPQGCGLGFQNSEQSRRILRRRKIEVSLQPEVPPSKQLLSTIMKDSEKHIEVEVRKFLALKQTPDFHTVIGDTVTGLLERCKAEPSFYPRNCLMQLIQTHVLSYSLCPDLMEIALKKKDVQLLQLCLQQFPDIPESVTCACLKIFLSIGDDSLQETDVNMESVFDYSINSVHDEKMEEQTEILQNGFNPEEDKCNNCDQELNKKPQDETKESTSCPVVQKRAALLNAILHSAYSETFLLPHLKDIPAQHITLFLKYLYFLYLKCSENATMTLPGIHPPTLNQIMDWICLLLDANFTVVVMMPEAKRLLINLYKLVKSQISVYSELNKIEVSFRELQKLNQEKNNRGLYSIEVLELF

Variants of: B1
Conditions: with nol11_human NOL11, Q9H8H0

| Variant | effect of a mutation on the interaction |
| --- | --- |
| R565W | decreasing interaction strength |
